Measured values from patent publication US20170306037A1 (Novartis, published 2017).
Numbering of substitutions follows the chain as printed.

Legend:
[1] = molecular target: T1, mouse GITR extracellular domain (mouse, UniProt O35714 20-153); assay: ELISA on coated GITR ECD
T1 construct: extracellular domain; also called murine GITR; rodent GITR
T1 sequence (looked up): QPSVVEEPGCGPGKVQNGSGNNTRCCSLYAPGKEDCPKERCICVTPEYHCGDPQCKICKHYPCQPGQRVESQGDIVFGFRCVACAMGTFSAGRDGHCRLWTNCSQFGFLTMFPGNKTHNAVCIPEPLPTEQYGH
Procedure: (§1) The plate was blocked with a solution of 1% BSA in PBS for one hour at room temperature and then rinsed three times with PBST. The MAB was then diluted to 0.5 μg/mL or 1 μg/mL in PBS and 20 μL was added to each well. The plate was incubated for 1 hour at room temperature and then washed three times with PBST. […] The plate was incubated for 1 hour at room temperature, and then washed six times with PBST. 25 μL of SureBlue TMB (KPL 52-00-02) substrate was added to each well and the plate was incubated for about 10 min at room temperature.

[2] = molecular target: T2, Recombinant human GITR and human Fc fusion protein (hGITR-hFc) (human, UniProt Q9Y5U5 26-162, limits assumed, biotinylated in the ForteBio Octet assays (sites not given)); assay: ForteBio Octet, Fab on human GITR (biotinylated hGITR-hFc sensors per paragraph 356); experiment b
T2 construct: also called biotinylated hGITR-hFc; not shown: human Fc
T2 sequence: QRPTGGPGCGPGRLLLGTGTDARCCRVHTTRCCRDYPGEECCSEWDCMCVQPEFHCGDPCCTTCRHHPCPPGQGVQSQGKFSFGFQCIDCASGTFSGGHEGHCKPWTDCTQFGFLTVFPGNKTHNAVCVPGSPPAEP

[3] = molecular target: T3, human GITR extracellular domain (hGITR ECD) (human, UniProt Q9Y5U5 26-162); assay: ELISA on coated GITR ECD
T3 construct: also called human GITR ECD
T3 sequence: T2 sequence
Procedure: as §1

[4] = molecular target: T2, Recombinant human GITR and human Fc …; assay: ForteBio Octet, Fab on human GITR (biotinylated hGITR-hFc sensors per paragraph 356); experiment c
[5] = molecular target: T2, Recombinant human GITR and human Fc …; assay: ForteBio Octet, Fab on human GITR (biotinylated hGITR-hFc sensors per paragraph 356); experiment a
[6] = molecular target: cyno GITR (cGITR), form not stated (cynomolgus monkey); assay: Biacore (SPR), IgG
[7] = molecular target: T4, human GITR (hGITR), form not stated (human, UniProt Q9Y5U5 26-162, limits assumed); assay: Biacore (SPR), IgG
T4 construct: the construct is not described
T4 sequence: T2 sequence

[8] = molecular target: T5, human GITR expressed on cells (human, UniProt Q9Y5U5 27-241); assay: cell-based or functional assay
T5 sequence: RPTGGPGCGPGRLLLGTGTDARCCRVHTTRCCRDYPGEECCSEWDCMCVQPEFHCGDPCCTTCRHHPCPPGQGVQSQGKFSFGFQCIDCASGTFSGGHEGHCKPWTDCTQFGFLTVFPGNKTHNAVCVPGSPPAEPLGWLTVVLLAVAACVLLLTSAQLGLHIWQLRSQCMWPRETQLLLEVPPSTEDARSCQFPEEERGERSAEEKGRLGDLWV

[9] = molecular target: T5, human GITR expressed on cells; assay: FACS competition on hGITR stable HEK293 cells: ligand titrated first, then 4 nM MAB7 as competitor, PE anti-human detection
Procedure: The ability of MAB to block ligand binding was assessed using HEK293 NFκB reporter parental cells and hGITR stable cells were used in competition binding assays and FACS analysis. Briefly, harvested cells were plated 1×10⁶ cells per mL, 100 μL per well to a 96 well round bottom FACS plate (Corning), then resuspended in 200 μL of cold FACS buffer (1×PBS+1% FBS-HI+0.1% sodium azide) per well. […] Plates were incubated for 1 hour on ice protected from light, cells washed, then prepared 4 nM isotype control or MAB solutions were prepared and added to appropriate wells at 100 μL per well and plates were incubated for 1 hour on ice protected from light, cells washed, then PE-conjugated goat-anti-human detection antibody (Jackson ImmunoResearch) prepared at 1:100 dilution in FACS buffer was added at 100 μL per well and plates were incubated for 30 minutes on ice protected from light. Cells were washed in FACS buffer then cells were fixed with 100 μL per well of BD CytoFix (BD Biosciences) and incubated for further 15 minutes on ice protected from light.

[10] = molecular target: T2, Recombinant human GITR and human Fc …; assay: ForteBio Octet QK, streptavidin biosensors coated with biotinylated hGITR-hFc
Source text: Human germline residues incorporated into the optimized reference MAB1opFab in FR1 and FR3 are those specified by the PCR primers used to amplify the human V-segment repertoire and thus are present in all members of the Humaneered® Antibody V-region libraries. The optimized reference Fab is constructed to assess whether or not any of the changes to human germline alter the properties of Fab binding.

B1: MAB6 (IgG1 kappa) (antibody, V domains shown)
VH: EVQLVESGGGLVQSGGSLRLSCAASGFSLSSYGVDWVRQAPGKGLEWLGVIWGGGGTYYTSSLMARFTISRDNSKNTLYLQMNSLRAEDTAVYYCAKHAYGHDGGFAMDYWGQGTLVTVSS
VL: EIVMTQSPATLSVSPGERATLSCRASESVSSNVAWYQQRPGQAPRLLIYGASNRATGIPARFSGSGSGTDFTLTISRLEPEDFAVYYCGQSYSYPFTFGQGTKLEIKR
Does B1 bind [1]?
Result: no binding (tested: 0.5 µg/mL or 1 µg/mL)

B2: MAB5 Fab (human full-chain Fab) (Fab, V domains shown)
VH: B1 VH with A65G
VL: EIVMTQSPATLSVSPGERATLSCRASESVSSNVAWYQQRPGQAPRLLIYGASNRATGIPARFSGSGSGTDFTLTISRLEPEDFAVYYCGQSYSYPFTFGQGTKLEIK
notes: human kappa constant; also called MAB5(b)
Which Kd [2] does the source give for B2 here?
Its Kd is 3.74 nM.

B3: MAB8 (IgG1 kappa) (antibody, V domains shown)
VH: B1 VH with L48V, T60A, A65G, K97R, H98N
VL: B1 VL
notes: MAB4 with the glycation site KH changed to RN
Does B3 bind [1]?
Result: no binding (tested: 0.5 µg/mL or 1 µg/mL)

Does B3 bind [3]?
Result: binds

B4: MAB6 Fab (human full-chain Fab) (Fab, V domains shown)
VH: B1 VH
VL: B2 VL
notes: human kappa constant; also called MAB6(c)
B4 was tested. Which Kd [4] did it give?
The Kd was 5.94 nM.

B5: MAB4 Fab (human full-chain Fab) (Fab, V domains shown)
VH: B1 VH with L48V, T60A, A65G
VL: B2 VL
notes: human kappa constant; also called MAB4(b)
How did the Kd [2] turn out when B5 was run?
The Kd was 2.43 nM.

B6: MAB3 Fab (human full-chain Fab) (Fab, V domains shown)
VH: B1 VH with E1Q, S14P, S61A, A65G
VL: B2 VL with E27Q, V33L, R39K, A60D
notes: human kappa constant; also called MAB3(a)
Which Kd [5] does the source give for B6 here?
The Kd was 2.98 nM.

B7: MAB2 Fab (human full-chain Fab) (Fab, V domains shown)
VH: B1 VH with E1Q, S14P, L48V, T60A, L63V
VL: B2 VL
notes: human kappa constant; purified on Ni-NTA; also called MAB2(a)
Which Kd [5] does the source give for B7 here?
Its Kd is 6.84 nM.

B8: MAB7 (IgG1 kappa) (antibody, V domains shown)
VH: B1 VH with L48V, T60A, A65G, K97R
VL: B1 VL
notes: MAB4 with the glycation site KH changed to RH
With B8 as the binder, how does the Kd [6] read?
The Kd was 3.67 nM.

What about the Kd [7] of the same binder?
The Kd was 4.29 nM.

Does B8 bind [1]?
Result: no binding (tested: not on the sheet; paragraph 336: 0.5 or 1 µg/mL)

B9: recombinant human GITR ligand (GITR-L) (ligand, UniProt Q9UNG2 52-177, looked up)
chain: ETAKEPCMAKFGPLPSKWQMASSEPPCVNKVSDWKLEILQNGLYLIYGQVAPNANYNDVAPFEVRLYKNKDMIQTLTNKSKIQNVGGTYELHVGDTIDLIFNSEHQVLKNNTYWGIILLANPQFIS
B9 was tested. Which “EC50, NFκB-luciferase reporter in 293 cells overexpressing human GITR” value [8] did it give?
The value was roughly 65 nM.

And the “IC50 (read off the curve)” value [9]?
Its value is ~0.2 molar ratio of Human GITR Ligand to MAB7 (MAB7 at 4 nM).

B10: MAB1rFab (reference Fab of MAB1) (Fab, V domains shown)
VH: QVQLKESGPGLVAPSQSLSITCTVSGFSLRSYGVDWVRQPPGKGLEWLGVIWGGGGTNYNSALMAKLSISKDKSKSQVFLKMNSLQTDDTAMYYCAKHAYGHDGGFAMDYWGQGTSVTVSS
VL: EIVMTQSPKSMSMSVGERVTLSCKASENVDTFVSWYQQKPDHSPKLLIYGASNRYTGVPDRFTGSGSATDFTLTISSVQAEDLADYHCGQSYSYPFTFGSGTKLEIK
Does B10 bind [10]?
Result: binds

B11: MAB1 (murine monoclonal GITR agonist antibody) (antibody, V domains shown)
VH: B10 VH
VL: B10 VL with E1N
notes: Mouse hybridoma antibody; also called parental mouse antibody MAB1; MAB1 parental Ab
Does B11 bind [1]?
Result: no binding

Does B11 bind [3]?
Result: binds
